Values of other authors as cited in paper PMC5338744.

Molecular target: VEGFR2 (KDR) (Homo sapiens) (UniProt P35968)
Chain of UniProt P35968 (P35968 20-1356): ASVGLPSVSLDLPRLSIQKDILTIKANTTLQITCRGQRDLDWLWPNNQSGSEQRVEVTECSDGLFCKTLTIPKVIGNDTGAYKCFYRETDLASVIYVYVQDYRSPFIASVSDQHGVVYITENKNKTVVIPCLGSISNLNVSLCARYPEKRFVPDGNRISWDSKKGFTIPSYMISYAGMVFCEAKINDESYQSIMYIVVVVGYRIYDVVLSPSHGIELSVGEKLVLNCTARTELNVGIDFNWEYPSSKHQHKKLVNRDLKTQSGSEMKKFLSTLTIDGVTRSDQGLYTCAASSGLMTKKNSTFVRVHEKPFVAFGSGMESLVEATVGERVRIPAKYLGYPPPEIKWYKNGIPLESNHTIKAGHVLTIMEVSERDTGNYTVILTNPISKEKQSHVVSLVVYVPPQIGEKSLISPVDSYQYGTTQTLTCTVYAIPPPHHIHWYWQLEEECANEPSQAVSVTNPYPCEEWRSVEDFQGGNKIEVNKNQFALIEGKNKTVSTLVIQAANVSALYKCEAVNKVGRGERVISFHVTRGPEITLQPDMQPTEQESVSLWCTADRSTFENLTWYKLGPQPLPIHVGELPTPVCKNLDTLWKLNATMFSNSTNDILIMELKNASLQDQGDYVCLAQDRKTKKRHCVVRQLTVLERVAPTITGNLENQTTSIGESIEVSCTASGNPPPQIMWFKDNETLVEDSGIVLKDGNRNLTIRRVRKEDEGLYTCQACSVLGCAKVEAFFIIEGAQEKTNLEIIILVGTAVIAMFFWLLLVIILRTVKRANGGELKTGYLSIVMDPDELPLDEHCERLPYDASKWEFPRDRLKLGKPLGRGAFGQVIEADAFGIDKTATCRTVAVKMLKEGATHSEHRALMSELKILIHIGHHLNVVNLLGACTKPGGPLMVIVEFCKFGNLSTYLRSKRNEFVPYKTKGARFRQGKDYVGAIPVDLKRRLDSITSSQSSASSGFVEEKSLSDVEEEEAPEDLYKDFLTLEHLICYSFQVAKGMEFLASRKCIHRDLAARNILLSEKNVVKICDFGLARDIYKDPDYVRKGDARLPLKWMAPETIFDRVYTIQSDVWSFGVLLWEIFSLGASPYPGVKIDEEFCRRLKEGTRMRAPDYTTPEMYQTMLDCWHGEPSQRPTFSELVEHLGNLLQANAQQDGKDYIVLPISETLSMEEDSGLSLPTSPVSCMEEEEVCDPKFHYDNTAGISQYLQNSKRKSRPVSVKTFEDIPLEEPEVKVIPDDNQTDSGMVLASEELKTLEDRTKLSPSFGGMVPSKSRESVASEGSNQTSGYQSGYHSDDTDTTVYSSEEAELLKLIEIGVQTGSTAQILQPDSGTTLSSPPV

- Kd: 760 pM
Substance: VEGF (from UniProt P15692)
